Reference: patent US20100150948A1, “MATERIALS AND METHODS FOR IMPROVED IMMUNOGLYCOPROTEINS” (TRUBION PHARMACEUTICALS, INC., priority 2006, published 2010)

Tests used:
[1] = design: species or system BALB/c mice; conditions: mouse, in vivo, iv, 200 ug
Protocol: Female BALB/c mice were injected i.v. with 200 μg of TRU-016 test protein (TRU-016 produced by untreated CHO cells or by CHO cells treated with 200 μM DMJ, […] or 200 μM castanospermine) at time 0. Serum samples were collected (3 mice per time point) at 15 min, 2, 6, 24, 48, 72, 96, and 192 hours post injection. The serum concentration of each TRU-016 test sample was determined in a FACS-based binding assay using the CD37+ Ramos human cell line. CD37+ Ramos cells (5×10^5 cells/well) were incubated in 96 well flat bottom plates along with the serum sample to be tested. Spiked serum samples were used for the standard curves. Cells were incubated at 4° C. for an hour and washed before addition of the detection antibody. Binding of TRU-016 test protein to CD37+ Ramos cells was detected using a fluorescein-conjugated goat anti-human IgG Fcγ fragment-specific antibody. Standard curves were used to construct a binding curve as a function of antigen concentration. Briefly, standard curves consisted of various known concentrations of the TRU-016 test protein spiked into normal mouse serum diluted 1:20 in FACS buffer. The standard curves were run in duplicate on each plate. Mean fluorescence intensities (MFI) from the FACS analysis were imported into Softmax Pro software and were used to calculate serum concentrations of the TRU-016 test protein.

Ramos B cells = assay: CDC activity, propidium iodide flow cytometry with human serum; type: cell-based; conditions: TRU-016 from CHO cells cultured with 200 μM DMJ, 10 μM kifenunsine or 200 μM castanospermine
Protocol: To determine the CDC activity of TRU-016 purified protein produced according to Example 2, Ramos B cells were suspended in Iscoves (Gibco/Invitrogen, Grand Island, N.Y.) at 5×10^5 cells/well in 75 μl. TRU-016 (75 μl) were added to the cells at twice the concentrations indicated. Binding reactions were allowed to proceed for 45 minutes prior to centrifugation and washing in serum-free Iscoves. Cells were resuspended in Iscoves with human serum (containing complement) at various concentrations. The cells were incubated 60 minutes at 37° C. Cells were washed by centrifugation and resuspended in staining media with 0.5 μg/ml propidium iodide. Samples were incubated 15 minutes at room temperature in the dark prior to analysis by flow cytometry using a FACsCalibur and CellQuest software (Becton Dickinson).

Ramos cells = assay: Ramos tumor model in nude mice; type: in vivo; conditions: TRU-016 from CHO cells treated with 200 μM DMJ, 10 μM kifenunsine or 200 μM castanospermine; 200 μg i.v.
Protocol: Nude mice are administered 5×10^6 Ramos cells subcutaneously on day 0 and injected intravenously with 200 μg control human IgG or TRU-016 test protein produced by CHO cells treated with 200 μM DMJ, 10 μM kifenunsine or 200 μM castanospermine on days 0, 2, 4, 6, and 8. Mice typically develop tumors within 6 days and die shortly thereafter. Tumors are measured three times weekly with digital calipers and LabCat software, and tumor volume is calculated as […]. Body weight is also determined once a week.
Mice are sacrificed when the tumor reaches 1500 mm^3 in size (1200 mm^3 on Fridays). Mice are also sacrificed if ulceration of a tumor occurs, the tumor inhibits the mobility of animal, or if weight loss equals or exceeds 20%.

[2] = biological target: T1, CD37 cell surface receptor (Homo sapiens, UniProt P11049); assay: Binding of TRU-016 to B and non-B lymphocytes of human PBMC, two-color flow cytometry
T1 construct: Human PBMCs are isolated over LSM density gradients; endogenous in cells; host or cells: human PBMC
T1 sequence (P11049 1-281): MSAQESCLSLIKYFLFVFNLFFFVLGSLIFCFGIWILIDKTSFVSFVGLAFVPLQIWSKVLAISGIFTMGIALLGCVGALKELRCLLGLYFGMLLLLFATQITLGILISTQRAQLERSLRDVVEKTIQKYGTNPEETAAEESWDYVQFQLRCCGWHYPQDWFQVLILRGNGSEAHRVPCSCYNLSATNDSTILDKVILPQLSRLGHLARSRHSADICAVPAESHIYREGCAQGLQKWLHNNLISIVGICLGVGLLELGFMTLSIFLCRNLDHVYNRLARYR
Protocol: Experiments may be performed to confirm that the binding specificity of the parent antibody to the CD37 cell surface receptor is preserved in TRU-016. Human PBMCs are isolated over LSM density gradients and incubated with unconjugated TRU-016 and PE-conjugated anti-human CD19. Cells are washed and incubated with 1:100 FITC GAH IgG (Fc specific) for 45 minutes on ice. Cells are washed and analyzed by two-color flow cytometry on a FACsCalibur instrument using Cell Quest software. Cells are gated for B lymphocytes or non-B lymphocytes by CD19 staining.

[3] = system: CD16 (low affinity allele); assay: Binding to soluble FcγR-MIg fusion on WIL2-S cells, flow cytometry; conditions: 0, 2, 5, 10, 30 or 100 μg/mL castanospermine in culture media
Protocol: The immunoglycoproteins produced according to Example 2 were assayed in vitro for binding to soluble Ig-fusion versions of Fcγ receptors, in which the extracellular domain of a receptor is fused to murine IgG2a Fc.
The soluble Fey receptor materials were generated by fusing the extracellular domain of Fcγ Receptors I (Genbank Acc. No. BC032634), IIa (Genbank Acc. No. NM_021642), IIb (Genbank Acc. No. BC031992), and III-V158 (high affinity allele) (Genbank Acc. No. X07934) and III-F158 (low affinity allele), respectively, to a murine IgG2a Fc with a Pro to Ser mutation at residue 238 (MIgG2aP238S). For both forms of Fcγ RIII (CD16), an HE4 leader was cloned onto CD16 amino acids 1-178 and then fused to MIgG2aP238S.
The assays were carried out as follows. […] The cells were then incubated with the desired FcγR-MIg fusion in the same diluent at a concentration of 1 μg/ml on ice for 45 minutes.
The complexes (WIL2-S cells/SMIP/FcγR-MIg) were then incubated with PE conjugated AffiniPure F(Ab')2 Goat Anti-Mouse IgG [Jackson Immunoresearch] (a mouse Fc-specific antibody with minimal cross reactivity with human Fc) at a 1:100 dilution. The cells were analyzed by one-color flow cytometry on a FACsCalibur using CellQuest software (Becton Dickinson).

Compound	effect of carbohydrate modifier on half-life or other pharmacokinetic parameters [1]	CDC compared with protein produced by untreated CHO cells (Ramos B cells)	mean survival time (Ramos cells)	tumor volume (Ramos cells)	TRU-016 concentration at saturation of FITC signal on the B lymphocyte (CD19 positive gate) ([2]; CD19 positive gate)	mean fluorescence intensity (MFI) at saturation ([2]; CD19 positive gate)	staining of the non-B lymphocyte population ([2]; non-B lymphocyte gate)	CD16 binding (geometric mean fluorescence intensity) of TRU-015 purified protein produced by CHO cells cultured with the modifier [3]
TRU-016: recombinant single chain protein (SMIP) that binds CD37; G28-1 binding domain, modified hinge, human IgG1 CH2 and CH3; SEQ ID NO: 2	no significant effect	similar	increase mean survival time	reduce tumor volume	approximately 1 μg/mL	~1000	detectable, but very low	
O[C@H]1[C@H](O)[C@@H](O)CN2CC[C@H](O)[C@H]12 [castanospermine]								dose-dependent increase
